According to IntAct's records for PubMed 22995871:

biological target: mare1_mouse Mapre1 (UniProt Q61166)
Sequence (Q61166 whole entry): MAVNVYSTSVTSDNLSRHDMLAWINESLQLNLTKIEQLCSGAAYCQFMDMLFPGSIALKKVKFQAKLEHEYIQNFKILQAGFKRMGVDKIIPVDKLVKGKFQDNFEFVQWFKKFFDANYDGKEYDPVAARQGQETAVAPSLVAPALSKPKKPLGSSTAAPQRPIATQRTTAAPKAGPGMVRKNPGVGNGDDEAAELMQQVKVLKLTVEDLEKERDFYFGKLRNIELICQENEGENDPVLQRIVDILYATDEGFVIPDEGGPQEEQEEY

Effect of a mutation on the interaction, disrupting interaction:
Dystonin (Homo sapiens), Q03001 D7248A
Dystonin (Homo sapiens), Q03001 D7250A
Dystonin (Homo sapiens), Q03001 D7246A
